Experimental data published in patent US20250257346A1.

B1: IdeE combined mutant E97D_del18 (protein)
chain: ITSVWTKGVTPLTPEQFRYNNEDVIHAPYLAHQGWYDITKAFDGKDNLLCGAATAGNMLHWWFDQNKTEIEAYLSKHPDKQKIIFNNQELFDLKAAIDTKDSQTNSQLFNYFRDKAFPNLSARQLGVMPDLVLDMFINGYYLNVFKTQSTDVNRPYQDKDKRGGIFDAVFTRGDQTTLLTARHDLKNKGLNDISTIIKQELTEGRALALSHTYANVSISHVINLWGADFNAEGNLEAIYVTDSDANASIGMKKYFVGINAHRHVAISAKKIEGENIGAQVLGLFTLSSGKDIWQKLSHHHHHH
B2: IdeE mutant IDEEV2 (protein)
chain: ITSVWTKGVTPLTPEQFRYNNEDVIHAPYLAHQGWYDITKAFDGKDNLLCGAATAGNMLHWWFDQNKTEIEAYLSKHPDKQKIIFNNQELFDLKAAIDTKDSQTNSQLFNYFRDKAFPNLSARQLGVMPDLVLDMFINGYYLNVFKTQSTDVNRPYQDKDKRGGIFDAVFTRGDQTTLLTARHDLKNKGLNDISTIIKQELTEGRALALSHTYANVSISHVINLWGADFNAEGNLEAIYVTDSDANASIGMKKYFVGINAHGHVAISAKKIEGENIGAQVLGLFTLSSGKDIWQKLS

Tests used:
Trastuzumab = assay: cell-based or functional assay
[1] = target: human IVIg (intravenous immunoglobulin)

Molecule	cleavage of human IgG1, SDS-PAGE (fold of wild-type IdeE) (Trastuzumab)	Fold of activity relative to wild-type (cleavage of human IgG1, ELISA) (Trastuzumab) [fold]	other results
IdeE C-terminal truncated mutant WT_delC10 (enzyme)	> 2	–	–
IdeE mutant T8W (enzyme)	> 2	2.58	–
IdeE C-terminal truncated mutant WT_delC5 (enzyme)	> 2	–	–
IdeE mutant A59V (enzyme)	> 2	2.68	–
IdeE mutant R280H (enzyme)	> 2	2.3	–
IdeE mutant A10K (enzyme)	–	1.99	–
IdeE mutant T24A (enzyme)	> 2	2.23	–
IdeE mutant R280K (enzyme)	–	2.2	–
IdeE mutant T8Y (enzyme)	–	2.3	–
IdeE mutant E97D (enzyme)	> 2	2	–
IdeE mutant T8E (enzyme)	–	2.09	–
IdeE mutant A59L (enzyme)	> 2	2.41	–
IdeE mutant A10R (enzyme)	–	2.2	–
IdeE mutant T24G (enzyme)	–	2.09	–
IdeE mutant A59I (enzyme)	–	2.31	–
IdeE mutant T24S (enzyme)	–	2.18	–
IdeE mutant T8D (enzyme)	> 2	2.21	–
B1	–	–	cleavage of human IVIg in mouse serum and plasma, SDS-PAGE [1]: E97D_del18 is effective in cleaving human IVIg in both mouse serum and plasma; cleavage of serum IgG, SDS-PAGE (mouse IgG): almost no cleavage effect for rat and mouse serum IgG; cleavage of serum IgG, SDS-PAGE (monkey IgG): can effectively cleave rabbit, canine, and monkey serum IgG; cleavage in human serum, SDS-PAGE (IgG1 in human serum): E97D_del18 cleaves in human serum to produce an apparent 25 kD Fc fragment; cleavage of serum IgG, SDS-PAGE (pig serum IgG): poor cleavage effect for pig serum IgG; cleavage of serum IgG, SDS-PAGE (rat IgG): almost no cleavage effect for rat and mouse serum IgG; cleavage of serum IgG, SDS-PAGE (canine IgG): can effectively cleave rabbit, canine, and monkey serum IgG; cleavage, SDS-PAGE (canine IgG): E97D_del18 could effectively cleave canine IgG, rabbit IgG and mouse IgG2a; cleavage of serum IgG, SDS-PAGE (rabbit IgG): can effectively cleave rabbit, canine, and monkey serum IgG, with the best cleavage effect for rabbit serum IgG; cleavage, SDS-PAGE (rabbit IgG): E97D_del18 could effectively cleave canine IgG, rabbit IgG and mouse IgG2a; cleavage in mouse serum, SDS-PAGE (IgG1 in mouse serum): little or no cleavage activity against IgG1 in mouse serum
B2	–	–	digestion of purified IgG, non-reduction SDS-PAGE (1:200) (monkey IgG): IDEEV2 can in species-specificity effectively digest IgG in rabbits, dogs, monkeys, and humans; digestion of purified IgG, non-reduction SDS-PAGE (1:200) (canine IgG): IDEEV2 can in species-specificity effectively digest IgG in rabbits, dogs, monkeys, and humans; digestion of purified IgG, non-reduction SDS-PAGE (1:200) (human IgG): IDEEV2 can in species-specificity effectively digest IgG in rabbits, dogs, monkeys, and humans; digestion of purified IgG, non-reduction SDS-PAGE (1:200) (rabbit IgG): IDEEV2 can in species-specificity effectively digest IgG in rabbits, dogs, monkeys, and humans
